Measured values reported in PMC10215022 (mAbs, 2023).

B1: casirivimab (REGN10933) (antibody, V domains shown)
VH: QVQLVESGGGLVKPGGSLRLSCAASGFTFSDYYMSWIRQAPGKGLEWVSYITYSGSTIYYADSVKGRFTISRDNAKSSLYLQMNSLRAEDTAVYYCARDRGTTMVPFDYWGQGTLVTVSS
VL: DIQMTQSPSSLSASVGDRVTITCQASQDITNYLNWYQQKPGKAPKLLIYAASNLETGVPSRFSGSGSGTDFTFTISGLQPEDIATYYCQQYDNLPLTFGGGTKVEIK
B2: imdevimab (REGN10987) (antibody, V domains shown)
VH: QVQLVESGGGVVQPGRSLRLSCAASGFTFSNYAMYWVRQAPGKGLEWVAVISYDGSNKYYADSVKGRFTISRDNSKNTLYLQMNSLRTEDTAVYYCASGSDYGDYLLVYWGQGTLVTVSS
VL: QSALTQPASVSGSPGQSITISCTGTSSDVGGYNYVSWYQQHPGKAPKLMIYDVSKRPSGVSNRFSGSKSGNTASLTISGLQSEDEADYYCNSLTSISTWVFGGGTKLTVL

Target: SARS-CoV-2 Delta (B.1.617.2) spike protein RBD, His-tagged (SARS-CoV-2 Delta (B.1.617.2), UniProt P0DTC2)
Assay: SPR

Binder | Kd [nM] | koff [s⁻¹] | kon [M⁻¹ s⁻¹]
B1 | 0.07 | 0.0002 | 2.9e+06
B2 | 0.11 | 0.00028 | 2.6e+06
